Assay: yeast display, Sf9 membrane polyspecificity reagent, FACS + sequencing; frameworks hold sequencing errors
Procedure, shortened: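 Nanobodies came from a synthetic yeast display library in Saccharomyces cerevisiae BJ5465, induced with galactose for 36–48 hours and stained for 1 hour at 4 °C with 10% biotinylated, detergent-solubilized Sf9 membrane reagent. Cells were enriched on streptavidin microbeads and then FACS-sorted, with low and high (top ~1%) gates set on anti-HA fluorescence for expression and streptavidin fluorescence for reagent binding. Each polyreactivity label reflects the gate a clone came from. Genes were amplified by colony PCR, sequenced by MiSeq 2 × 250 and filtered by CDR length.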

Row | Sequence | polyreactivity (PSR sort gate)
1 | QVQLVESGGGLVQAGGSIRLSCAASGRTFGQNPMGWYRQAPGKERELVAVITRGGSTNYADSVKGRFTISRDNAKNTVYLQMNSLKPEDTAVYYCAADYTAYGYDYWGQGTQVTVSS | low polyreactivity
2 | QVQLVESGGGLVQAGGSLRLSCAASGFIFKYYAMGWYRQAPGKERELVASISSYGSSTYYADSVKGRFTSSRDSAKNTVYLQLNSVKPEDTAVYYCAAPYNFWNFFDLIYVWDGYDYWGQGTQVTVSS | low polyreactivity
3 | QVQLVESGGGLVQAGGSLRLSCAASGRTFTSNGMGWYRQAPGKERELVAAITSGTSTYYADSVKGRFTISRDNAKNPVYLQMNSLKPEDTAVYYCNKLVPRGSSYSTVIRGGGYWGQGTQVTVSS | high polyreactivity
4 | QVQLEESGGGLVQAGGSLRLSCAASGSTFYRYTMGWYRQAPGTERELVAAISRSGGRTYYADSVKGRFTISRDNAKNTVYLQMNSLKPEDTAVYYCAAARRYGRYFGYPMEYWGQGTQVTVSS | high polyreactivity
5 | QVQLVESGGGLVQAGGSLRLSCAASGRTFDLYAMGWYRQAPGKERELVARITNIDDSTYYADSVKGRFTISRDYAKNTVYLQMNSLKPEDTAVYYCNAASYSRGPARYDYWGQGTQVTVSS | high polyreactivity
6 | QGQLVESGGGLVQAGGSLRLSCAASGLTFKGYAMGWYRQAPGKERELVAAITWDTGSTYYADSVKGRFTISRDNAKNTVYLQMNSLKPEDTAVYYCAAVGSTTTGVRRRGYWGQGTQVTVSS | high polyreactivity
7 | QVQLVESGGGLVQAGGSLRLSCAASGRTFGKNAMGWYRQAPGKERELVAAISWSGGRTYYADSVKGRFTISRDNAKNTVYLQMNSLKPEDTAVYYCAAVRRRRNSYGYWGQGTQVNVSS | high polyreactivity
8 | QVQLVESGGGLVQAGGSLRLSCAASGAIFGGYAMGWYRQAPGKERELVAAISSGGSTNYADSVKGRFTISRDNAKNTVYLQMNSLKPEDTAVYYCAVRGRLPHARQRGYVPKYYYWGQGTQVTVSS | high polyreactivity
9 | QVQLVDSGGGLVQAGGSLRLSCAASGFILGSNVMGWYRQAPGIERELVAAISYSGGSTYYADSVKGRFTISRDNAMNTVYLQMNILKPEDTAVYYCNARPSDVWYYYWGQGTQVTVSS | low polyreactivity
10 | QVQLVESGGGLVQAGGSLRLSCAASGSIFRGYAMGWYRQAPGKERELVAVIRRTSGSTYYADSVKGRFTISRDNAKNTVYLQMNSLKPEDTAVYYCNTLRHSSYPSYGYWGQGTQVTVSS | high polyreactivity
11 | QVQLVESGGGLVQAGGSLRLSCAASGFIFKGYAMGWYRQAPGKERELVATINWSGGRTYYADSVKGRFTISRDNAKNTVYLQMNSLKPEDTAVYYCNVQVGTYAWWYRVGSWYDYWGQGTQVTVSS | high polyreactivity
12 | QVQLVESGGGLVQAGGSLRLSCAASGRIFKNNAMGWYRQAPGKERELVAVISGSGGSTYADSVKGRFTISRDNAKNTVYLQLNSLKPADTAVYYCAASRYYRIWYSLLQGYDYWGQGTQVTVSS | high polyreactivity
13 | QVQLVESGGGLVQAGGSLRLSCAASGSIFLRYAMGSYRQAPGKDRELVAAITRSGGSTYYADSVKGRFTISRDNANNTVDLQMNSLKPEDTAVYYCAAYTLVTVGYDYWGQGTQVTVSS | high polyreactivity
14 | QVQLVESGGGLVQAGGSLRLICAASGRIFVYNAKGSYSQAPGKDRELVATITSGGSTYYSDSVKGRFTISRDNAKNTVYFQMNSLKPEDTAVYYCAARRWYVHYFAYGYWGQGTQVTVSS | low polyreactivity
15 | QVQLVESGGGLVQAGGSLRLSCAASGIIFNSNAMGWYRQAPGKERELVAAISVSGGSTYYADSVKGRFTISRDNAKNTVYLQMNSLKPEDTAVYYCAAVFYYWSLRSYYWGQGTQVTVSS | high polyreactivity
16 | QVQLVESGGGLVQAGGSLRLSCAASGSIFYSYAMGWYRQAPGKERELVASISDGSSTYADSVKGRFTISRDNAKNTVYLQMNSLKPEDTAVYYCNADATDSYPEKDEHDSWGQGTQVTVSS | low polyreactivity

Row | Sequence | polyreactivity (PSR sort gate)
17 | QDQLVESGGGLVQAGGSLRLSCAASGSIFLYNAMGWYRQAPGKERELVADITSAGRTYYADSVKGRFTISRDNAKNTVYLQMNSLKPEDTAVYDCNKDYHYHFSWYGYWGQGTQVTVSS | low polyreactivity
18 | QVQLVESGGGLVQAGGSLRLSCAASGFTSPTAMGWYRQAPGKVRELVADISVGDGSTYYADSVKGRFTISRDNAKNTVYLQMNSLKREDTAVYYCAAEYWLYWYQDGFGFDYWGQGTQVTVSS | high polyreactivity
19 | QVQLVESGGGLVQAGGSLRLSSAASGRTFIVYAMGWYRQQPGKERELVARISSGSRTSYADSVKGRFTISRDNAKNTVYLQMNSLKPEDTAVYYCAKSRVIKYEFDYWGQGTQVTVSS | low polyreactivity
20 | QLQLVESGGGLVQAGGSLRISCAASGSTFGRNAMGWYRQAPGKERELVAVISKSGGSTYYADSVKGRFTISRDNAKNTVYLQMNSLKPEDTAVYYCAARYYSYWREYQHFDYWGQGTQVTVSS | high polyreactivity
21 | QVQLVESGGGLVQAGGSLRLSCAESGLILAGYTMGWYRQAPGKESELVAAISDRGGSTYYADSVKGRFTISRDNAKNTVYLQMNSLKPEDTAVYYCNAFVYSYALTPSYAGDYWGQGTQVTVSS | low polyreactivity
22 | QVQLVESGGGLVQAGGSLRLSCAASGFTFRRNAMGWYRQAPGKERELVAAITYNGGTTYYADSVKGRFTISRDYAKNTVYLQMNSLKPVDTAVYYCNAPYGRQGYDYWGQGTQVTVSS | low polyreactivity
23 | RVQLVESGGGLVQAGGSLRLSCAASGSISQGNAMGWYRQAPGKERELVADIRWTSGRTYYADSVKGRFTISRDNAKNTVYLQMNSLKPEDTAVYYCAAYYVYYTPTLIDRDYWGQGNQVTVSS | low polyreactivity
24 | QVQLVESGGGLVQAGGSLRLSCAASGFTFRYYAMGWYRQAPGKERELVARISSRGGSTNYADSVKGRFTISRDNAKNTVYLQMNSLKAEDTAVYFCAAASWNSNRHYYVARYYYWGQGTQVTVSS | high polyreactivity
25 | QVQLVESGGGLVQAGGSLRLRCAASGFTFGYNAMGWYRQAPGKERELVAAIYFSDGITYYADSVKGRFTISRDNAKNTVYLQMNSLKPEDTAVYYCAADLYFEYEYWGQGTQVTVSS | high polyreactivity
26 | QVQLVESGGGLVQAGGSLRLSCAASGRTFSSYAMGWYRQAPGKERELVASISKSGGSTSYADSVKGRFTISRDNAKNTVYLQMNSLKPEDTAVYYCNARLDYSTYESSPVTRKRYYWGQGTQVTVSS | low polyreactivity
27 | QVQLVESGGGLVQAGGSLRLICAASGITFSAYAMGWYRQAPGKERELVAAITRSGGITYYADSVKGRFTISRDNAKNSVYLQMNSLKPEDTAVYYCNKPYASPYYDSWGQGTQVTVSS | high polyreactivity
28 | QVQLVESGGGLVQAGGSLRLSCAASGRIFFRNAMGWYRQAPGKERELVAAISKSGTRTYYADSVKGRFTISRDNAKNTVYLQMHSLKPEDTAVYYCNALLRDCGTYAGDDYWGQGTQVTVSS | high polyreactivity
29 | QVQLVESGGGLVQAGGSLRLSCAASGRTFYYNAMGWYRQAPGKERELVAAISWSGGSTYYADSVKGRFTISRDNAKNTVYLQMNSLKPEDTAVYYCAADYEYSRAYGYDYWGQGTQVTVSL | low polyreactivity
30 | QVQLVESGGGLVQAGGSLRLSCAASGSTFRINAMGWYRQAPGKERELVADINSGGNTTYADSVKGRFTISRDNAKNTVYLQMNSLKPEDTAVYYCAADPVFDLWEFLLDYGYDYWGQGTQVTVSS | low polyreactivity
31 | QVQLVESGGGLVQAGGSLRLSCAASGRTIRYYTMGWYRQAPGKERELVAAISRSGGNTYYADSVKGRFTISRDNAKITVYLQMNSLKPEETAVYYCNKEYRHYVGRHDYWGQGTQVTVSS | high polyreactivity

Reference: the nanobody polyreactivity screen of Harvey et al. (2022)
